B1: ADD1 (parent)
chain: GEGTGSPPKWQIGEQEFEALMRML

94 variants from the supplement of paper PMC10567573 can be followed below.
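Further: lentivirally expressed fusions sorted by FACS into six bins by GFP to DsRed ratio, PSI derived from sequencing read proportions per bin multiplied by bin number.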

The variants in this data set derive from B1. Briefly: protein stability index of a GFP-peptide fusion (GPS, HEK-293T) (PSI 1-6); higher = more stable. Particulars: c terminus: a fixed tail appended.
Take GEGTGSPPSWQIGEQEFEALMRML [K9S]: the protein stability index stood at 3.48.
The result for GEGTGSPPFWQIGEQEFEALMRML [K9F] reads 2.8; that for GEGTGSPPYWQIGEQEFEALMRML [K9Y], 3.43.
The result for GEGTGSPPLWQIGEQEFEALMRML [K9L] reads 2.34; that for GEGTGSPPQWQIGEQEFEALMRML [K9Q], 3.25.
The figure for GEGTGSPPVWQIGEQEFEALMRML [K9V] is 2.49; for GEGTGSPPAWQIGEQEFEALMRML [K9A] it is 3.76; for GEGTGSPPIWQIGEQEFEALMRML [K9I] it is 2.58.
On to GEGTGSPPPWQIGEQEFEALMRML [K9P], for which the protein stability index was found to be 3.42.
The figure for GEGTGSPPDWQIGEQEFEALMRML [K9D] is 3.33; for GEGTGSPPRWQIGEQEFEALMRML [K9R] it is 3.07.
The figure for GEGTGSPPMWQIGEQEFEALMRML [K9M] is 2.93; for GEGTGSPPEWQIGEQEFEALMRML [K9E] it is 3.82.
The result for GEGTGSPPWWQIGEQEFEALMRML [K9W] reads 2.63; that for GEGTGSPPHWQIGEQEFEALMRML [K9H], 3.08.
Take GEGTGSPPCWQIGEQEFEALMRML [K9C]: the protein stability index was determined as 2.28.
For GEGTGSPPTWQIGEQEFEALMRML [K9T], the protein stability index was determined as 2.95.
On to GEGTGSPPGWQIGEQEFEALMRML [K9G], for which the protein stability index is 3.14.
The figure for GEGTGSPPNWQIGEQEFEALMRML [K9N] is 3.53; for GEGTGSPPKYQIGEQEFEALMRML [W10Y] it is 3.14.
The figure for GEGTGSPPKQQIGEQEFEALMRML [W10Q] is 3.5; for GEGTGSPPKMQIGEQEFEALMRML [W10M] it is 3.27.
Take GEGTGSPPKHQIGEQEFEALMRML [W10H]: the protein stability index amounted to 3.99.
Consider GEGTGSPPKPQIGEQEFEALMRML [W10P], for which the protein stability index worked out at 3.81.
Regarding GEGTGSPPKDQIGEQEFEALMRML [W10D], the protein stability index came out at 4.58.
Regarding GEGTGSPPKSQIGEQEFEALMRML [W10S], the protein stability index was determined as 4.2.
With GEGTGSPPKRQIGEQEFEALMRML [W10R], the protein stability index was found to be 4.22.
The figure for GEGTGSPPKGQIGEQEFEALMRML [W10G] is 3.97; for GEGTGSPPKLQIGEQEFEALMRML [W10L] it is 3.06.
The result for GEGTGSPPKIQIGEQEFEALMRML [W10I] reads 2.86; that for GEGTGSPPKAQIGEQEFEALMRML [W10A], 3.71; that for GEGTGSPPKVQIGEQEFEALMRML [W10V], 3.67.
The result for GEGTGSPPKEQIGEQEFEALMRML [W10E] reads 4.28.
Consider GEGTGSPPKCQIGEQEFEALMRML [W10C], for which the protein stability index stood at 2.93.
The result for GEGTGSPPKFQIGEQEFEALMRML [W10F] reads 3.26; that for GEGTGSPPKNQIGEQEFEALMRML [W10N], 4.19.
The result for GEGTGSPPKTQIGEQEFEALMRML [W10T] reads 3.42; that for GEGTGSPPKKQIGEQEFEALMRML [W10K], 3.57; that for GEGTGSSPKWQIGEQEFEALMRML [P7S], 2.45.
The result for GEGTGSYPKWQIGEQEFEALMRML [P7Y] reads 2.14.
For GEGTGSKPKWQIGEQEFEALMRML [P7K], the protein stability index came to 3.23.
For GEGTGSRPKWQIGEQEFEALMRML [P7R], the protein stability index came to 2.63.
The result for GEGTGSTPKWQIGEQEFEALMRML [P7T] reads 2.23; that for GEGTGSFPKWQIGEQEFEALMRML [P7F], 3.61.
The result for GEGTGSLPKWQIGEQEFEALMRML [P7L] reads 2.33; that for GEGTGSDPKWQIGEQEFEALMRML [P7D], 3.09.
The result for GEGTGSEPKWQIGEQEFEALMRML [P7E] reads 3.04; that for GEGTGSVPKWQIGEQEFEALMRML [P7V], 2.62; that for GEGTGSIPKWQIGEQEFEALMRML [P7I], 2.46.
Consider GEGTGSCPKWQIGEQEFEALMRML [P7C], for which the protein stability index was found to be 2.59.
GEGTGSHPKWQIGEQEFEALMRML [P7H]: the protein stability index came to 2.89.
The figure for GEGTGSNPKWQIGEQEFEALMRML [P7N] is 2.88; for GEGTGSGPKWQIGEQEFEALMRML [P7G] it is 2.52.
The figure for GEGTGSWPKWQIGEQEFEALMRML [P7W] is 2.08; for GEGTGSAPKWQIGEQEFEALMRML [P7A] it is 2.92.
The figure for GEGTGSQPKWQIGEQEFEALMRML [P7Q] is 3.04; for GEGTGSMPKWQIGEQEFEALMRML [P7M] it is 2.33; for GEGTGSPPKWHIGEQEFEALMRML [Q11H] it is 3.23.
For the variant GEGTGSPPKWVIGEQEFEALMRML [Q11V], the protein stability index came to 2.86.
The figure for GEGTGSPPKWPIGEQEFEALMRML [Q11P] is 3.33; for GEGTGSPPKWRIGEQEFEALMRML [Q11R] it is 3.46.
The result for GEGTGSPPKWCIGEQEFEALMRML [Q11C] reads 2.76; that for GEGTGSPPKWIIGEQEFEALMRML [Q11I], 2.97; that for GEGTGSPPKWKIGEQEFEALMRML [Q11K], 4.08.
For GEGTGSPPKWWIGEQEFEALMRML [Q11W], the protein stability index was 3.04.
The figure for GEGTGSPPKWGIGEQEFEALMRML [Q11G] is 2.66.
For the variant GEGTGSPPKWNIGEQEFEALMRML [Q11N], the protein stability index came out at 3.53.
Take GEGTGSPPKWDIGEQEFEALMRML [Q11D]: the protein stability index stood at 3.82.
The figure for GEGTGSPPKWYIGEQEFEALMRML [Q11Y] is 2.57.
As to GEGTGSPPKWSIGEQEFEALMRML [Q11S], the protein stability index was found to be 3.42.
The result for GEGTGSPPKWLIGEQEFEALMRML [Q11L] reads 2.98; that for GEGTGSPPKWEIGEQEFEALMRML [Q11E], 3.24.
The result for GEGTGSPPKWAIGEQEFEALMRML [Q11A] reads 2.86; that for GEGTGSPPKWTIGEQEFEALMRML [Q11T], 3.51.
As to GEGTGSPPKWFIGEQEFEALMRML [Q11F], the protein stability index was 3.22.
The result for GEGTGSPPKWMIGEQEFEALMRML [Q11M] reads 3.54; that for GEGTGSPDKWQIGEQEFEALMRML [P8D], 3.84; that for GEGTGSPMKWQIGEQEFEALMRML [P8M], 2.63.
The figure for GEGTGSPCKWQIGEQEFEALMRML [P8C] is 2.27.
On to GEGTGSPAKWQIGEQEFEALMRML [P8A], for which the protein stability index came out at 3.07.
The figure for GEGTGSPRKWQIGEQEFEALMRML [P8R] is 3.14.
The figure for GEGTGSPLKWQIGEQEFEALMRML [P8L] is 2.6.
The figure for GEGTGSPYKWQIGEQEFEALMRML [P8Y] is 2.49; for GEGTGSPQKWQIGEQEFEALMRML [P8Q] it is 2.79; for GEGTGSPGKWQIGEQEFEALMRML [P8G] it is 3.
Turning to GEGTGSPSKWQIGEQEFEALMRML [P8S], the protein stability index turned out to be 2.82.
With GEGTGSPEKWQIGEQEFEALMRML [P8E], the protein stability index stood at 3.66.
The figure for GEGTGSPKKWQIGEQEFEALMRML [P8K] is 2.52; for GEGTGSPFKWQIGEQEFEALMRML [P8F] it is 2.36; for GEGTGSPIKWQIGEQEFEALMRML [P8I] it is 2.31.
The figure for GEGTGSPVKWQIGEQEFEALMRML [P8V] is 2.2.
The figure for GEGTGSPNKWQIGEQEFEALMRML [P8N] is 3.24; for GEGTGSPTKWQIGEQEFEALMRML [P8T] it is 2.85; for GEGTGSPWKWQIGEQEFEALMRML [P8W] it is 2.29.
